Assay results as given in PMC10055720.

Target: human TERT∆TEN D788R, FLAG-tagged, co-expressed with TR (human)

human TERT TEN domain (aa 2–197), Myc-tagged (from UniProt O14746 2-197) (domain or fragment)
POT1–TPP1-stimulated processivity in the trans complementation primer extension assay, relative to WT: 64% | total telomerase activity in the trans complementation primer extension assay, relative to WT TERT∆TEN with TEN: 24 % of WT
